The labels stand for the following.
B1: GST-hSMN (252-284) (domain or fragment, human, UniProt Q16637 252-284, looked up)
chain: DSLDDADALGSMLISWYMSGYHTGYYMGFRQNQ
notes: The N-terminal place of GST is read from the printed name only; also called human SMN; human-SMN only control; source: E. coli BL21(DE3), purified (NiNTA); not shown: GST, N-terminal, kept
B2: His6-MBP-zfSMNwt (natural protein, zebrafish, UniProt Q9W6S8 1-281, looked up)
chain: MANGAEDVVFCRGTGQSDDSDIWDDTALIKAYDKAVASFKNALKGEDGATPQENDNPGKKRKNNKKNKSRKRCNAAPDKEWQVGDSCYAFWSEDGNLYTATITSVDQEKGTCVVFYTDYGNEEEQNLSDLLTEPPDMDEDALKTANVKETESSTEESDRSFTPQKSGHAKHKSKSNFPMGPPSWFPSFPPGPPPPPPHFKKMDGRRGEGPGPSFPGWPPMIPLGPPMIPPPPPMSPDFGEDDEALGSMLISWYMSGYHTGYYMGLRQGRKEAAASKKSHRK
notes: Survival motor neuron protein (Smn), zebrafish, wild type; The order of the tags is read from the printed name only; also called zebrafish Smn; zebrafish-Smn only control; source: E. coli BL21(DE3), purified (NiNTA); not shown: His6, N-terminal, kept; MBP, N-terminal, kept

The data set “His6-MBP-zfSMNwt” addresses B2. The experiment in a line: SEC; Superdex 200 Increase 10/300 GL; purified fusion proteins run alone and as a mixture; fractions analysed by SDS-PAGE with Coomassie staining. To be noted: both partners purified.
Data set [1] deals with the molecule itself. The description is as above.

Take B1: the binding result (with His6-MBP-zfSMNwt; in data set [1]) was “binds” each time.
For the molecule B2, in data set [1], the binding result is given as “binds”.

These data come from article PMC8385639, “Fluorescence Correlation Spectroscopy Reveals Survival Motor Neuron Oligomerization but No Active Transport in Motor Axons of a Zebrafish Model for Spinal Muscular Atrophy” (Frontiers in Cell and Developmental Biology, 2021).
